In patent US7067274B2, “Compositions and methods for the screening pro-apoptotic compounds” (Genentech, Inc., priority 2003, dated 2006):
Substitutions are numbered along the chain they refer to. Entries after “also recorded” stand apart in the source; their conditions may differ. Read-outs that look alike come from different tables or passages of the source. One block for each molecule: values may come before it.

Assays:
ΔCARD human caspase 9 = biological target: T1, ΔCARD human caspase 9 (Homo sapiens, UniProt P55211, D305A/E304A/E306A); test: Determination of caspase-9 inhibitory constants (Ac-LEHD-AFC hydrolysis); type: biochemical; settings: for Ki: read-out: Caspase-9 inhibition Ki(app)
T1 construct: made in house
T1 sequence (P55211 139-315 E304A/D305A/E306A limits assumed): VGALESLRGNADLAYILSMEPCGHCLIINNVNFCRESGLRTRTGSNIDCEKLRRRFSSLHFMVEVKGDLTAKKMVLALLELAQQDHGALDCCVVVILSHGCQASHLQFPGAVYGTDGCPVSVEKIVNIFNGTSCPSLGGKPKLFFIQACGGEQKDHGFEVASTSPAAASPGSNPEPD
T1 sequence (P55211 316-416 limits assumed): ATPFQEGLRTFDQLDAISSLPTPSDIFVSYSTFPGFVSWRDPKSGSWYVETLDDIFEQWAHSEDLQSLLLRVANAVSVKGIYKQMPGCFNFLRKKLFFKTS
Protocol: ΔCARD (caspase recruitment domain) human caspase 9 (lacking the first 138 residues) with Ala substitutions at residues 304 to 306 was produced as described previously (Boatright et al., (2003) Mol Cell 11: 529–541). The third BIR of […] (residues 252–348) was also prepared as described previously (Sun et al., (2000) J Biol Chem 275(43): 33777–81).
Determination of Caspase-9 Inhibitory Constants: Recombinant ΔCARD caspase 9 (300 nM final concentration in the assay) was preactivated in salt-free caspase buffer (20 mM PIPES, 10 mM EDTA, 0.1% CHAPS and 10% (w/v) sucrose, pH 7.2) for 15 min at 37° C. Following this, a range of inhibitor concentrations were preincubated with the enzyme for 20 min at 37° C. The assay was started by the addition of Ac-LEHD-AFC (100 μM final concentration) and measured kinetically for 30 min using an fmax Fluorescence Plate Reader (Molecular Devices) at an excitation wavelength of 405 nm and an emission wavelength of 510 nm. Reaction mixtures were thermostatically controlled at 37° C. The individual Ki values for the inhibitors [I] were determined from the uninhibited substrate hydrolysis rate (vo) and the inhibited rates (vi), so that a plot of (vo/vi)−1 against [I] gives Ki(app), the equilibrium inhibition constant in the presence of substrate (Salvesen and Nagase, (1989) Proteolytic enzymes: A practical approach. R. J. Beynon and J. S. Bond. Oxford, IRL Press: 83–104).

MCF7 cells = test: Inhibition of doxorubicin-induced apoptosis in transfected MCF7 cells; type: cell-based; settings: MCF7 cells transiently transfected, doxorubicin 0.5 μg/ml
Protocol: MCF7 cells were transiently transfected with the reporter plasmid pCMV-βgal and either vector control alone or BIR domain constructs. Following transfection, cells were exposed to doxorubicin (adriamycin; 0.5 μg/ml), stained with X-gal and apoptosis assessed by counting live and dead transfected cells. Percentage apoptosis represents the mean value of at least four sample points and is representative of three independent experiments.

[1] = biological target: Hid-FAM (5-carboxyflourescein-conjugated AVPFAK(5-FAM)K); test: Fluorescence polarization affinity measurement with Hid-FAM probe; type: binding; settings: 5 nM Hid-FAM, apparent Kd from EC50
Protocol: Polarization experiments were performed on an Analyst™ HT 96-384 (Molecular Devices Corp.). […] The reactions were read after an incubation time of 10 minutes at room temperature with standard cut-off filters for the fluorescein fluorophore (λex=485 nm; λem=530 nm) in 96-well black HE96 plates (Molecular Devices Corp.). Fluorescence polarization values were plotted as a function of the protein concentration, and the EC50 values were obtained by fitting the data to a 4-parameter equation using Kaleidagraph™ software (Synergy software, Reading, Pa.). The apparent Kd values were determined from the EC50 values.
(§1) The binding affinity of the Hid-FAM probe for each of the BIR domains was determined directly using a fluorescence polarization-based assay and the result is shown graphically in FIG. 8.

caspase-9 = biological target: T2, caspase-9 (Homo sapiens, UniProt P55211); settings: literature; read-out: inhibition constant, caspase-9; cited from earlier work
T2 sequence (P55211 1-416): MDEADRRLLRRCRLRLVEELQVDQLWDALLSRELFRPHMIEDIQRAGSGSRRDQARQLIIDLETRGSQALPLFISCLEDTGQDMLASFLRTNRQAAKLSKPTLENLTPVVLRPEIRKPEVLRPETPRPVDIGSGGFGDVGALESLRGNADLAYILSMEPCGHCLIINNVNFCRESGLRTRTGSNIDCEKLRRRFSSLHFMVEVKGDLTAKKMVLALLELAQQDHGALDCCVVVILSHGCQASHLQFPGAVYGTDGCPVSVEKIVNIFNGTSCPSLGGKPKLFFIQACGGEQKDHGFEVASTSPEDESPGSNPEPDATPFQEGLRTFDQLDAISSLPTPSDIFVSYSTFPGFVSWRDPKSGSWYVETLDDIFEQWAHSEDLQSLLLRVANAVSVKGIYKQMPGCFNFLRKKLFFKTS

[2] = biological target: wild-type mature Smac protein; test: Fluorescence polarization competition assay, mature Smac protein; type: binding, human; settings: competition with 5 nM Hid-FAM probe, Ki from IC50
Protocol: A PCR product containing amino acids 56–239 of Smac/DIABLO (accession number SMAC_HUMAN) was cloned into the XbaI/XhoI sites of a pet21b+ (Novagen) generating a C-terminal His6 fusion. Pet21bSmac was transformed into Escherichia coli strain BL21(DE3) competent cells (Stratagene). Overnight cultures were diluted 1:100 and grown at 37° C. in LB media with 50 μg/ml carbenicillin to an A600 of 0.8 with vigorous shaking. Isopropyl-β-D-1-thiogalactopyranoside (IPTG) was added to a final concentration of 1 mM and cultures were grown overnight at 16° C. Cell pellets were resuspended in Buffer A (50 mM Tris (pH 8.0), 300 mM NaCl, 0.5 mM PMSF, 2 mM benzamidine, 5 mM β-mercaptoethanol) with 5 mM imidazole and placed on ice for 30 minutes. Cells were homogenized, microfluidized, and centrifuged at 15,000 rpm for 45 minutes. Supernatant was loaded onto a Ni-NTA agarose column (Qiagen™), washed with 10 column volumes Buffer A with 10 mM imidazole, and eluted with 10 column volumes Buffer A with 300 mM imidazole. Fractions containing Smac protein were pooled, concentrated and loaded on a Superdex™ 200 sizing column. Protein eluted over one column volume into 50 mM Tris (pH 7.6), 300 mM NaCl, 0.5 mM PMSF, 2 mM benzamidine and 5 mM DTT. Fractions containing Smac protein were pooled and dialyzed against 3 changes of buffer containing 50 mM Tris (pH 7.6), 0.5 mM PMSF, 2 mM benzamidine and 5 mM DTT. The dialyzed sample was loaded onto a Q-Sepharose™ FF column (Pharmacia) and eluted over a 10 column volume gradient from zero to 1 M NaCl in buffer 50 mM Tris (pH 7.6), 0.5 mM PMSF, 2 mM benzamidine and 5 mM DTT. The cDNA encoding full-length ML-IAP plus a N-terminal His6-tag was cloned into the pET15b(+) expression vector (Novagen). ML-IAP was expressed in E. coli strain BL21(DE3)pLysS. […] The protein concentration of purified proteins was determined from the absorbance at 280 nm based on the molar absorption coefficients calculated from the Edelhoch relationship (Edelhoch, (1967) Biochemistry 6: 1948–1954).
Samples were read after a 10-minute incubation. Fluorescence polarization values were plotted as a function of the antagonist concentration, and the IC50 values were obtained by fitting the data to a 4-parameter equation using Kaleidagraph™ software (Synergy software; Reading, Pa.). Inhibition constants (Ki) for the antagonists were determined from the IC50 values (Keating et al., (2000) Putting the pieces together: contribution of fluorescence polarization assays to small-molecule lead optimization. Proceedings of SPIE: In-Vitro Diagnostic Instrumentation.).
as §1

[3] = 300 nM ΔCARD caspase 9, 100 μM Ac-LEHD-AFC, 37° C.

B3: ML-IAP: full-length melanoma inhibitor of apoptosis protein with N-terminal His6-tag (protein)
chain: MGPKDSAKCLHRGPQPSHWAAGDGPTQERCGPRSLGSPVLGLDTCRAWDHVDGQILGQLRPLTEEEEEEGAGATLSRGPAFPGMGSEELRLASFYDWPLTAEVPPELLAAAGFFHTGHQDKVRCFFCYGGLQSWKRGDDPWTEHAKWFPSCQFLLRSKGRDFVHSVQETHSQLLGSWDPWEEPEDAAPVAPSVPASGYPELPTPRREVQSESAQEPGGVSPAEAQRAWWVLEPPGARDVEAQLRRLQEERTCKVCLDRAVSIVFVPCGHLVCAECAPGLQLCPICRAPVRSRVRTFLS
modifications: left off: small tags and cut ends
Ki (ΔCARD human caspase 9): 3000 to 5000 nM
fold lower potency for inhibition of caspase-9 activity relative to XIAP (ΔCARD human caspase 9; relative to XIAP): ~300 fold

B4: MLXBIR3: ML-IAP-BIR in which amino acids 160–179 were replaced with amino acids 336–348 of XIAP-BIR3 (protein)
chain: TEEEEEEGAGATLSRGPAFPGMGSEELRLASFYDWPLTAEVPPELLAAAGFFHTGHQDKVRCFFCYGGLQSWKRGDDPWTEHAKWFPSCQFLLRSKGQEYINNIHLTHSL
modifications: left off: small tags and cut ends
Ki (ΔCARD human caspase 9; [3]): 962 nM
fold less potent at inhibiting caspase-9 than XIAP-BIR3 (ΔCARD human caspase 9; relative to XIAP-BIR3): ~70 fold
fold better at inhibiting caspase-9 than MLBIR-Q (ΔCARD human caspase 9; relative to wild-type ML-IAP-BIR construct of the same length): ~5 fold
inhibition of doxorubicin-induced apoptosis (MCF7 cells): confers resistance
Kd [1]: 21 nM

B5: MLBIR-Q: C-terminally truncated version of ML-IAP-BIR with the same number of amino acids as MLXBIR3 and MLXBIR3SG (protein)
chain: B4 chain with Q98R, E99D, Y100F, I101V, N102H, N103S, I104V, H105Q, L106E, L110Q
modifications: left off: small tags and cut ends
Ki (ΔCARD human caspase 9; [3]): 4600 nM
Kd [1]: 20 nM
Ki [2]: 54 nM

Now from value to molecule, other results behind:

Ki (ΔCARD human caspase 9; [3]): 13 nM
Kd [1]: 105 nM
Ki [2]: 320 nM
B1: XIAP-BIR3: third BIR domain of XIAP (residues 252–348) (protein)
chain: NSTNLPRNPSMADYEARIFTFGTWIYSVNKEQLARAGFYALGEGDKVKCFHCGGGLTDWKPSEDPWEQHAKWYPGCKYLLEQKGQEYINNIHLTHSL
modifications: left off: small tags and cut ends
inhibition of doxorubicin-induced apoptosis (MCF7 cells): confers resistance
Ki (caspase-9): 10 to 20 nM

Ki (ΔCARD human caspase 9; [3]): < 1 nM
Ki [2]: 59 nM
B2: MLXBIR3SG: MLXBIR3 chimera with Ser 150 of ML-IAP-BIR mutated to Gly (SEQ ID NO:2) (protein)
chain: MGSSHHHHHHSSGLVPRGSHMLETEEEEEEGAGATLSRGPAFPGMGSEELRLASFYDWPLTAEVPPELLAAAGFFHTGHQDKVRCFFCYGGLQSWKRGDDPWTEHAKWFPGCQFLLRSKGQEYINNIHLTHSL
modifications: Homo sapien
inhibition of doxorubicin-induced apoptosis (MCF7 cells): significantly more efficient; also recorded: confers resistance
